Measured values published in PMC8980812.

Assays:
[1] = molecular target: T1, PleC PAS AB-HK (Caulobacter crescentus)
T1 sequence (P37894 whole entry, looked up): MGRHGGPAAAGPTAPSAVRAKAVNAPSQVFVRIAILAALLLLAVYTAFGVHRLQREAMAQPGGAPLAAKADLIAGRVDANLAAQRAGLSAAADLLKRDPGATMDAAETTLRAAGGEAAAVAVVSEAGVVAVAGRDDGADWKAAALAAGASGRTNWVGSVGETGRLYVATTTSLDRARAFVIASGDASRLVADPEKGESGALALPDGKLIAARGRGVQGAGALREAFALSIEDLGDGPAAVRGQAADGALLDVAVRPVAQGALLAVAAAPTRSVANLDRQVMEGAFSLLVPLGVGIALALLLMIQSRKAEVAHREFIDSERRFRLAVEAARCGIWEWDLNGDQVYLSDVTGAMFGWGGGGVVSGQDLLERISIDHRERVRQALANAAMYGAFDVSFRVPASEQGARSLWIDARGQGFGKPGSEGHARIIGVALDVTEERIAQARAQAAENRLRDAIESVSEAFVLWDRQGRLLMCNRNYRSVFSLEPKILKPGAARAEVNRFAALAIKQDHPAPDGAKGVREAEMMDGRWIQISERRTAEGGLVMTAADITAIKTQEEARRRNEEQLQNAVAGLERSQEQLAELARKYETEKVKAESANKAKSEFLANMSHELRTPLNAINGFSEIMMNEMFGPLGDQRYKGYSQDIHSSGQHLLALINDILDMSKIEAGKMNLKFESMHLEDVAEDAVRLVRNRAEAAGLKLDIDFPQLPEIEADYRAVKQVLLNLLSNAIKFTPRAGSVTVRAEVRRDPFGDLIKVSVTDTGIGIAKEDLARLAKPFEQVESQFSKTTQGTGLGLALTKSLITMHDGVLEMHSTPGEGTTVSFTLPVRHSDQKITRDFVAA

[2] = molecular target: PleC-CcaS chimeric histidine kinase (chimera AB-1) (Caulobacter crescentus | not stated)
[3] = molecular target: PleC-CcaS chimeric histidine kinase (chimera AB-1) (Caulobacter crescentus | not stated); remark: listed apart in the source

B1: PodJ(250–635) (domain or fragment)
chain: LGAVETANPATGVQEGLDSLAATLTQKMEAARLEMAAKLRESADGRFDRMERKLGEMAAHVQAAEQRSAQAIERMGREIVGVADAFNRRVHAAESRNASAIEQVGGEVARIAASVEHKLNRADSVQAQALEKLGGEIARITEKLAERIGSAERRNALAIDDVGEQVARVTERLNQRHERSSQELVDRIRQSEERTLRMLEEAREKIDSRLSEAQRKLEAAPPSPPPAQAPAPVATAQRPVPPAASPFEDNYFSQAASFSTSEDEADAFDAPPAPARSFEVAEFPAAEPEEPAFAHDDYAIADGFEPESPRYEVEPEVSDFAPAEPSRPMSTRDIIEQARAAARAAAASEGKGGKAKSAKKEKASKASGSLFSGFGGFSTKKSKARL
[1]
  ADP production IC50 (coupled enzyme assay of PleC PAS AB-HK) relative to that of PodJ(1–635): 2 fold

B2: YFP-PodJ (full-length PodJL) (natural protein)
chain: MTAASPWSVKGIDPKAREVAKDLARRSGMTLGEWLNRMIIEGDGQTADPRLAGDDVPNRAYLEIVKDDAPPRIEIAEHPADEVGRVALALDRLTQRIEAAEGRNAAAITGIDHSVRDALTRLGASEREQIAVAARFEGAVDELKTEQARATERLRRIESEAAGPRSAEALRALEGALGKVAGHLYEGEARTREAIATLEAKLNQQSSGDPSALVEAVVARLGERLEAAETRTSDALRELGASFQALDQRLGAVETANPATGVQEGLDSLAATLTQKMEAARLEMAAKLRESADGRFDRMERKLGEMAAHVQAAEQRSAQAIERMGREIVGVADAFNRRVHAAESRNASAIEQVGGEVARIAASVEHKLNRADSVQAQALEKLGGEIARITEKLAERIGSAERRNALAIDDVGEQVARVTERLNQRHERSSQELVDRIRQSEERTLRMLEEAREKIDSRLSEAQRKLEAAPPSPPPAQAPAPVATAQRPVPPAASPFEDNYFSQAASFSTSEDEADAFDAPPAPARSFEVAEFPAAEPEEPAFAHDDYAIADGFEPESPRYEVEPEVSDFAPAEPSRPMSTRDIIEQARAAARAAAASEGKGGKAKSAKKEKASKASGSLFSGFGGFSTKKSKARLGATVTTALVVFAAAGALGAGVGGLLLLNTDDGNNSPSRVAQAIAGRKADVEVNGPEADTTPGAPRAAVALTTGKVVPAEVEAPAAPPTNEAKALFEDAVRKIESGDRSGVELLKRAANGGYPAAQFYLSKMYEGGKNGVKVDMAEARRWSERAANGGDPRAMHNLALYYFKGEGGPRNSTTAASWFRKAADMGLVDSQFNLAQLYESGLGVSQNPAEAYKWYVIAGRAGDSTARGRATALRSQLTAEAQQTADRSALAFRPQTQVQTASLSSAAPAAANANLGVAQRVLSQLGYYQGPRDGVSSPALRMAIAAYQRDQGLPPTGSVDAETLNRLSVYAR
[2]
  mCherry expression from the cpcG2 promoter through PleC-CcaS and CcaR in E. coli, relative to the empty vector control: 10 fold

B3: PodJ(250–635) expressed in E. coli (domain or fragment)
chain: LGAVETANPATGVQEGLDSLAATLTQKMEAARLEMAAKLRESADGRFDRMERKLGEMAAHVQAAEQRSAQAIERMGREIVGVADAFNRRVHAAESRNASAIEQVGGEVARIAASVEHKLNRADSVQAQALEKLGGEIARITEKLAERIGSAERRNALAIDDVGEQVARVTERLNQRHERSSQELVDRIRQSEERTLRMLEEAREKIDSRLSEAQRKLEAAPPSPPPAQAPAPVATAQRPVPPAASPFEDNYFSQAASFSTSEDEADAFDAPPAPARSFEVAEFPAAEPEEPAFAHDDYAIADGFEPESPRYEVEPEVSDFAPAEPSRPMSTRDIIEQARAAARAAAASEGKGGKAKSAKKEKASKASGSLFSGFGGFSTKKSKARL
[3]
  mCherry expression from the cpcG2 promoter through PleC-CcaS and CcaR in E. coli: 3 fold
